Assay results reported in article PMC11911400, “Mechanism of ASF1 engagement by CDAN1” (Nature Communications, 2025).
Values belong to the binder of their own block, whether it stands above or below them.

B1: Strep-tagged CDAN1 (ST-CDAN1), wildtype (natural protein, human)
chain: MAAVLESLLREEVSVAAVVRWIARSTQGSEDNAGEAAALSSLRALRKEFVPFLLNFLREQSSRVLPQGPPTPAKTPGASAALPGRPGGPPRGSRGARSQLFPPTEAQSTAAEAPLARRGGRRRGPGPARERGGRGLEEGVSGESLPGAGGRRLRGSGSPSRPSLTLSDPPNLSNLEEFPPVGSVPPGPTGTKPSRRINPTPVSEERSLSKPKTCFTSPPISCVPSSQPSALDTSPWGLGLPPGCRSLQEEREMLRKERSKQLQQSPTPTCPTPELGSPLPSRTGSLTDEPADPARVSSRQRLELVALVYSSCIAENLVPNLFLELFFVFQLLTARRMVTAKDSDPELSPAVLDSLESPLFQSIHDCVFFAVQVLECHFQVLSNLDKGTLKLLAENERLLCFSPALQGRLRAAYEGSVAKVSLVMPPSTQAVSFQPETDNRANFSSDRAFHTFKKQRDVFYEVLREWEDHHEEPGWDFEKGLGSRIRAMMGQLSAACSHSHFVRLFQKQLLQMCQSPGGAGGTVLGEAPDVLSMLGADKLGRLWRLQERLMAPQSSGGPCPPPTFPGCQGFFRDFILSASSFQFNQHLMDSLSLKIQELNGLALPQHEPNDEDGESDVDWQGERKQFAVVLLSLRLLAKFLGFVAFLPYRGPEPPPTGELQDSILALRSQVPPVLDVRTLLQRGLQARRAVLTVPWLVEFLSFADHVVPLLEYYRDIFTLLLRLHRSLVLSQESEGKMCFLNKLLLLAVLGWLFQIPTVPEDLFFLEEGPSYAFEVDTVAPEHGLDNAPVVDQQLLYTCCPYIGELRKLLASWVSGSSGRSGGFMRKITPTTTTSLGAQPSQTSQGLQAQLAQAFFHNQPPSLRRTVEFVAERIGSNCVKHIKATLVADLVRQAESLLQEQLVTQGEEGGDPAQLLEILCSQLCPHGAQALALGREFCQRKSPGAVRALLPEETPAAVLSSAENIAVGLATEKACAWLSANITALIRREVKAAVSRTLRAQGPEPAARGERRGCSRACEHHAPLPSHLISEIKDVLSLAVGPRDPDEGVSPEHLEQLLGQLGQTLRCRQFLCPPAEQHLAKCSVELASLLVADQIPILGPPAQYRLERGQARRLLHMLLSLWKEDFQGPVPLQLLLSPRNVGLLADTRPREWDLLLFLLRELVEKGLMGRMEIEACLGSLHQAQWPGDFAEELATLSNLFLAEPHLPEPQLRACELVQPNRGTVLAQS
notes: Codanin-1 (CDAN1), human, 1227 residues; cDNA from Horizon Discovery/Dharmacon, its point mutation S421F corrected; same construct used in Expi293 and in Flp-In 293 T-REx cells; dimer by SEC-MALS and cryo-EM; also called Strep-CDAN1; WT CDAN1; source: Expi293, transiently transfected, in lysate and purified in complexes (anti-FLAG, Strep-Tactin); Flp-In 293 T-REx, transiently transfected, in …
B3: FLAG-tagged CDIN1 (F-CDIN1) (natural protein, UniProt Q9Y2V0 1-281, looked up)
chain: MILTKAQYDEIAQCLVSVPPTRQSLRKLKQRFPSQSQATLLSIFSQEYQKHIKRTHAKHHTSEAIESYYQRYLNGVVKNGAAPVLLDLANEVDYAPSLMARLILERFLQEHEETPPSKSIINSMLRDPSQIPDGVLANQVYQCIVNDCCYGPLVDCIKHAIGHEHEVLLRDLLLEKNLSFLDEDQLRAKGYDKTPDFILQVPVAVEGHIIHWIESKASFGDECSHHAYLHDQFWSYWNRFGPGLVIYWYGFIQELDCNRERGILLKACFPTNIVTLCHSIA
notes: C15orf41); cDNA synthesized by IDT; source: Expi293, transiently transfected, in lysate and purified in complexes (anti-FLAG, Strep-Tactin); not shown: 3xFLAG, N-terminal, kept

Experiments:
[1] = biological target: the molecule itself; experiment: SEC-MALS; 200 µg of each purified complex at 5 µM on SRT SEC-300 column, PBS pH 7.4 with 1 mM DTT; DAWN HELEOS II; dn/dc 0.185
[2] = biological target: the molecule itself; experiment: cryo-EM structure; tandem-purified C:C:A complex cross-linked with 250 µM BS3, 1 mg/mL; single-particle cryo-EM, 3.0 to 3.5 Å
[3] = biological target: B3; experiment: cryo-EM structure; purified ST-CDAN1C:F-CDIN1 (C:C) complex, cross-linked with BS3, 0.78 mg/mL; ~6 Å reconstruction, no model built; conditions: both partners purified
[4] = biological target: B1; experiment: SEC-MALS; 200 µg of each purified complex at 5 µM on SRT SEC-300 column, PBS pH 7.4 with 1 mM DTT; DAWN HELEOS II; dn/dc 0.185; conditions: both partners purified

Binder: B1
stoichiometry N [1]: 2 CDAN1 per complex
stoichiometry N [2]: 2

binding result [3]: binds
B2: Strep-CDAN1C (CDAN1 MA3 domain, residues 1008-1227) (domain or fragment, human, UniProt Q8IWY9 1008-1227, looked up)
chain: GERRGCSRACEHHAPLPSHLISEIKDVLSLAVGPRDPDEGVSPEHLEQLLGQLGQTLRCRQFLCPPAEQHLAKCSVELASLLVADQIPILGPPAQYRLERGQARRLLHMLLSLWKEDFQGPVPLQLLLSPRNVGLLADTRPREWDLLLFLLRELVEKGLMGRMEIEACLGSLHQAQWPGDFAEELATLSNLFLAEPHLPEPQLRACELVQPNRGTVLAQS
notes: also called ST-CDAN1C; CDAN1 C-term; source: Expi293, transiently transfected, purified in complex with F-CDIN1 (anti-FLAG, Strep-Tactin); not shown: 3xStrep-II-TEV, N-terminal, kept

Binder: B3
stoichiometry N [4]: 2 CDIN1 per two CDAN1
